Measurements from publication doi:10.1101/2024.11.14.623549 (bioRxiv, 2024).

T1: Sla2:270-350 (complete IDR of Sla2) (Saccharomyces cerevisiae, UniProt P33338 270-350)
T1 sequence (looked up): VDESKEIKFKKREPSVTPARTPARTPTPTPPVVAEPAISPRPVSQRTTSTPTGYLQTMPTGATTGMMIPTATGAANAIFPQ

T2: Sla2cc ΔSite1 (Δ515-546) (Saccharomyces cerevisiae, UniProt P33338 296-767, Δ515-546)
T2 sequence (looked up): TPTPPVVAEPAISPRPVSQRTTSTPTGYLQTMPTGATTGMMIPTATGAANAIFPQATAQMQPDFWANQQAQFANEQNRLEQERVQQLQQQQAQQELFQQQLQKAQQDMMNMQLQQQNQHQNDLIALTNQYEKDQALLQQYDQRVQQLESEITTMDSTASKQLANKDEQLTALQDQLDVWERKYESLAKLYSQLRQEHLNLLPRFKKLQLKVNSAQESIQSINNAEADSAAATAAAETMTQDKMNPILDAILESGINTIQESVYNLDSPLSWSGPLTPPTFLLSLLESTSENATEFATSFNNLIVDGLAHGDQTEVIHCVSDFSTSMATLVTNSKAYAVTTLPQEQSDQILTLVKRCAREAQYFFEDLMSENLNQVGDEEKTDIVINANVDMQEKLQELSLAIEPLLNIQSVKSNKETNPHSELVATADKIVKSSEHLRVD

B1: Sla1 SH3_3 domain (Sla1 residues 355-414) (domain or fragment, Saccharomyces cerevisiae)
chain: GAMAKKRGIVQYDFMAESQDELTIKSGDKVYILDDKKSKDWWMCQLVDSGKSGLVPAQFIEPVR
modifications: also: RED-NHS dye label, site not given here
B2: Sla2cc (Sla2 residues 296-767), WildType (domain or fragment, Saccharomyces cerevisiae, UniProt P33338 296-767, looked up)
chain: TPTPPVVAEPAISPRPVSQRTTSTPTGYLQTMPTGATTGMMIPTATGAANAIFPQATAQMQPDFWANQQAQFANEQNRLEQERVQQLQQQQAQQELFQQQLQKAQQDMMNMQLQQQNQHQNDLIALTNQYEKDQALLQQYDQRVQQLESEITTMDSTASKQLANKDEQLTALQDQLDVWERKYESLAKLYSQLRQEHLNLLPRFKKLQLKVNSAQESIQKKEQLEHKLKQKDLQMAELVKDRDRARLELERSINNAEADSAAATAAAETMTQDKMNPILDAILESGINTIQESVYNLDSPLSWSGPLTPPTFLLSLLESTSENATEFATSFNNLIVDGLAHGDQTEVIHCVSDFSTSMATLVTNSKAYAVTTLPQEQSDQILTLVKRCAREAQYFFEDLMSENLNQVGDEEKTDIVINANVDMQEKLQELSLAIEPLLNIQSVKSNKETNPHSELVATADKIVKSSEHLRVD
modifications: RED-NHS dye label (only in the MST against CLC:70-140 and Pan1:777-987)
B3: NusA conjugated to CLC (NusA-CLC) (natural protein, Saccharomyces cerevisiae, UniProt P17891 1-233, looked up)
chain: MSEKFPPLEDQNIDFTPNDKKDDDTDFLKREAEILGDEFKTEQDDILETEASPAKDDDEIRDFEEQFPDINSANGAVSSDQNGSATVSSGNDNGEADDDFSTFEGANQSTESVKEDRSEVVDQWKQRRAVEIHEKDLKDEELKKELQDEAIKHIDDFYDSYNKKKEQQLEDAAKEAEAFLKKRDEFFGQDNTTWDRALQLINQDDADIIGGRDRSKLKEILLRLKGNAKAPGA
B4: Clathrin Light Chain (CLC), residues 1-233 (natural protein, Saccharomyces cerevisiae, UniProt P17891 1-233, looked up)
chain: B3 chain
modifications: RED-NHS dye label
B5: Sla2ccRTH (Sla2 residues 351-968) (domain or fragment, Saccharomyces cerevisiae, UniProt P33338 351-968, looked up)
chain: ATAQMQPDFWANQQAQFANEQNRLEQERVQQLQQQQAQQELFQQQLQKAQQDMMNMQLQQQNQHQNDLIALTNQYEKDQALLQQYDQRVQQLESEITTMDSTASKQLANKDEQLTALQDQLDVWERKYESLAKLYSQLRQEHLNLLPRFKKLQLKVNSAQESIQKKEQLEHKLKQKDLQMAELVKDRDRARLELERSINNAEADSAAATAAAETMTQDKMNPILDAILESGINTIQESVYNLDSPLSWSGPLTPPTFLLSLLESTSENATEFATSFNNLIVDGLAHGDQTEVIHCVSDFSTSMATLVTNSKAYAVTTLPQEQSDQILTLVKRCAREAQYFFEDLMSENLNQVGDEEKTDIVINANVDMQEKLQELSLAIEPLLNIQSVKSNKETNPHSELVATADKIVKSSEHLRVDVPKPLLSLALMIIDAVVALVKAAIQCQNEIATTTSIPLNQFYLKNSRWTEGLISAAKAVAGATNVLITTASKLITSEDNENTSPEQFIVASKEVAASTIQLVAASRVKTSIHSKAQDKLEHCSKDVTDACRSLGNHVMGMIEDDHSTSQQQQPLDFTSEHTLKTAEMEQQVEILKLEQSLSNARKRLGEIRRHAYYNQDDD
B6: Sla2:283-297 peptide (peptide)
peptide: PVSTPARTPARTPTP

Tests used:
[1] = molecular target: T1, Sla2:270-350 (complete IDR of Sla2); test: MST
[2] = molecular target: B4; test: MST
[3] = molecular target: B5; test: mass photometry
Sla2cc ΔSite1 (Δ515-546) = molecular target: T2, Sla2cc ΔSite1 (Δ515-546); test: MST
mass photometry = molecular target: the molecule itself; test: mass photometry
[4] = molecular target: B1; test: MST

Binder: B1
- Kd [1]: 900 nM

Binder: B2
- KD of Site 1 (higher affinity site) [2]: ~100 nM
- KD of Site 2 (lower affinity site) [2]: 3 µM

Binder: B3
- stoichiometry N [3]: 1 NusA-CLC per Sla2 dimer

Binder: B4
- binding result (Sla2cc ΔSite1 (Δ515-546)): binds

Binder: B5
- stoichiometry N (mass photometry): 2

Binder: B6
- Kd [4]: 81.2 µM
